In patent US20140302049A1:

Target: human GPR49 (LGR5), on cells (human) (UniProt O75473)
Assay: cell-based or functional assay

Chain of UniProt O75473 (O75473 22-907 limits assumed): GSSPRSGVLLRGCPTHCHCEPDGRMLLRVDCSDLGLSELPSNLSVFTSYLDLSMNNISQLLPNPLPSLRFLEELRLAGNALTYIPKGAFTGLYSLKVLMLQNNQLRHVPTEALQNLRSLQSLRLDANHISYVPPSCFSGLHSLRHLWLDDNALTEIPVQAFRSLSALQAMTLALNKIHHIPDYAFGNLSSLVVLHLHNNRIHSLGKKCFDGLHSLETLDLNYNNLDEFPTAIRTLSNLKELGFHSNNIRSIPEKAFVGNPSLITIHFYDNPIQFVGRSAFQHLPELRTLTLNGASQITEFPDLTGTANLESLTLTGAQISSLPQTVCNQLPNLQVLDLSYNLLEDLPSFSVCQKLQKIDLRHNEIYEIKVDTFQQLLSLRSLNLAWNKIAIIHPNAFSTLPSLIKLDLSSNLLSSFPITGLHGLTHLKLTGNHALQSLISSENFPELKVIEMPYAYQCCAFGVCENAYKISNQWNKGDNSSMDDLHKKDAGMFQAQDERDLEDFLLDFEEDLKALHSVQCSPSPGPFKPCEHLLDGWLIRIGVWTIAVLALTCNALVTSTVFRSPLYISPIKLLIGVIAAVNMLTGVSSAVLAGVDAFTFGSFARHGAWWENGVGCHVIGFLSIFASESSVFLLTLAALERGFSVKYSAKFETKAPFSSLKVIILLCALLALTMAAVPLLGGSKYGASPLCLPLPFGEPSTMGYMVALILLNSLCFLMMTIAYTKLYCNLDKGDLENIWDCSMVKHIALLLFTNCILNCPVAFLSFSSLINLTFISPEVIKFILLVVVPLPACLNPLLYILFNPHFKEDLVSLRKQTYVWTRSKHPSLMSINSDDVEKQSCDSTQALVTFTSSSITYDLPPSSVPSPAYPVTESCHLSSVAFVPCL

For R-spondin 1 (ligand), the increase in proliferation of GPR49-3T3 clone 28 was 4 fold.
